Source: patent US20120148607A1 (ARGEN X N V, published 2012)
Read-outs that look alike come from different tables or passages of the source.

B1: 20A11 mAb (antibody, V domains shown)
VH: QVQLVESGGGLVQPGGSLRLSCAASGFTFDDYAMSWVRQAPGKGLEWVSAISWNGSSTYYAESMKGRFTISRDNAKNTLYLQMNSLKSEDTAVYYCAKDLIGSHDYWGQGTQVTVSS
VL: QAVLTQPPSVSGTLGKTLTISCAGTSSDVGYGNYVSWYQQLPGTAPKLLIYAVSTRASGIPDRFSGSKSGNTASLTISGLQSEDEADYYCASYRSSNNYAFGAGTKLTVL
B2: 56F3 (antibody, V domains shown)
VH: EVQLVQPGAEVKKPGASVKVSCKASGYIFTMNSIDWVRQAPGQGLEWMGRIDPEEGGTKYAQKFQGRVTMTADTSTSTAYMELSSLRSDDTAVYYCARVDDYYLGYDYWGQGTQVTVSS
VL: DIVMTQSPDSLAASLGERVTINCKSSQSVLFSSNQKNYLAWYQQRPGQSPKLLIYWASIRESGVPDRFSGSGSGTDFTLTISSLQAEDVAVYYCQQGYSFPYSFGSGTRLEIK
notes: also called germlined variant of 48A2
B3: 13E6 mAb (antibody, V domains shown)
VH: QVQLQESGGDLVQPGGSLRLSCAASGFTFDDYVMNWVRQAPGKGLEWISAINWNGGSTYYAESMKGRFTISRDNAKNTLYLQMYSLQSDDTAVYYCVKDTVVSGNGYWGQGTQVTVSS
VL: QSVLTQPPSVSGTLGKTVTISCAGTSSDIGDYNYVSWYQQLPGTAPKLLIYDVNKRASGIPDRFSGSKSGNTASLSISGLQSEDEADYYCASYRSRNDYAFGGGTKLTVL
B4: 40B8 mAb (antibody, V domains shown)
VH: EVQLVQPGAELRNPGASVKVSCKASGYTFTNYVIDWVRQAPGQGLEWMGRIDPENGGTRYAQKFQGRVTFTADTSTSTAYVELSNLRSEDTAVYYCARLEDYELAYDYWGQGTQVTVSS
VL: DIVMTQTPSSVTASAGEKVTINCKSSQSVLLSSNQKNYLAWYQQRLGQSPRLLIYWASTRESGVPDRFSGSGSTTDFTLTISSFQPEDAAVYYCQQGVSFPLTFGQGTKVELK
B5: 36C4 mAb (antibody, V domains shown)
VH: QVQLVESGPGLVKPSQTLSLTCAVSGGSITTNYYYWSWIRQSPGKGLEWMGVIAYDGSTDYSPSLKSRTSISRDTSKNQFSLQLSSVTPEDTAVYYCARDVRVIATGWATANALDAWGQGTLVTVSS
VL: QSVLTQPPSVSGSPGKTVTISCAGTSSDVGYGNYVSWYQQLPGTAPKLLIFAVSYRASGIPDRFSGSKSGNTAFLTISGLQSEDEADYYCASYRSSNNAAVFGGGTHLTVL
notes: also called SIMPLE antibody 36C4

Legend:
[1] = target: T1, Decoy c-Met (extracellular domain of human c-Met) (human, UniProt P08581 25-932); assay: binding ELISA, human c-Met (Decoy)
T1 construct: extracellular domain; also called Decoy Met; monomeric Decoy Met

[2] = target: T2, c-Met IPT3-4 ectodomain (human, UniProt P08581 742-932, limits assumed); assay: ELISA on immobilised c-Met ectodomains
T2 construct: domain: IPT3-4

[3] = target: T3, c-Met SEMA ectodomain (human, UniProt P08581 27-515); assay: ELISA on immobilised c-Met ectodomains
T3 construct: domain: SEMA; also called SEMA domain

[4] = target: T4, c-Met SEMA-PSI ectodomain (human, UniProt P08581 25-562, limits assumed); assay: ELISA on immobilised c-Met ectodomains
T4 construct: domain: SEMA-PSI

[5] = target: T5, c-Met SEMA-PSI-IPT1-2 ectodomain (human, UniProt P08581 25-741, limits assumed); assay: ELISA on immobilised c-Met ectodomains
T5 construct: domain: SEMA-PSI-IPT1-2; also called IPT1-2 (as recognised domain)

[6] = target: T6, Rhesus (Maccaca mulatta, US20090191580-5) c-Met ECD (Rhesus (Maccaca mulatta)); assay: binding ELISA, Rhesus c-Met ECD immobilised (1 µg/ml)
T6 construct: extracellular domain; also called Rhesus c-Met ECD; Rhesus ECD
Protocol: Cross reactivity to Rhesus (Maccaca mulatta, US20090191580_{—}5) c-Met ECD and mouse c-Met (R&D systems cat no: 527-ME) was performed in a binding ELISA. Rhesus ECD was immobilized in PBS (1 μg/ml) on a 96-well maxisorb plate and incubated at 4° C. over night. After blocking with 1% casein in PBS, the antibodies in dilutions starting with 10 μg/ml were added and allowed to bind for 1 h at room temperature. The plate was washed and a goat anti-human Fcγ antibody (Jackson) was added and incubated for 1 h at room temperature. After washing, TMB was added and the plate read at 620 nm

[7] = target: T1, Decoy c-Met (extracellular domain of …); assay: SPR: mAb (0.5 µg/ml) kept 1 h at the given temperature, run over a CM-5 chip coupled with 15,000-17,000 RU Decoy c-Met; slope between 100 and 130 s at 30 µl/min in percent of the sample kept at 4 °C
[8] = target: T7, human c-Met ECD (aa 25-932) with His tag (human, UniProt P08581 25-932); assay: ELISA: 200 ng of the c-Met ECD protein coated on maxisorb plates; mAb dilutions 1 h RT; HRP-conjugated goat anti-human antibody, TMB, OD 620 nm
T7 construct: range 25-932; Soluble protein from HEK293 cells; also called human c-Met (WT); not shown: His tag

[9] = target: T8, recombinant dimeric c-Met (R&D systems, 358-MT/CF) (human, UniProt P08581 25-932); assay: competition ELISA: recombinant dimeric c-Met (100 ng/ml) captured by coated mouse anti-His antibody; antibody dilutions 30 min, then 25 ng/ml N-terminally biotinylated HGF (the competitor); strep-HRP, TMB, 620 nm; percent competition against the controls
T8 construct: Bought product; also called Fc-Met; recombinant c-Met
Protocol: Competition with N-terminally biotinylated HGF for binding to immobilized c-Met was performed using an ELISA-based competition assay. Five μg/ml mouse anti-His antibodies (Serotech) was immobilized on a maxisorb plate and, after blocking with 1% casein in PBS for 2 h, 100 ng/ml recombinant dimeric c-Met was added and incubated for 1 h at room temperature. After washing, dilutions of the antibodies were added and allowed to bind to the captured c-Met for 30 minutes, before 25 ng/ml N-terminally biotinylated HGF (R&D systems, 294-HGN/CF) was added. Biotinylated HGF was incubated at room temperature for 1 h before washing. Horseradish-conjugated streptavidin (strep-HRP) was added and incubated for an additional hour. TMB was added and the plate read at 620 nm. An isotype control (hIgG1λ) was included as a control as well as murine 5D5 antibody. Competition was expressed as percentage competition as compared to the controls (strep-HRP only or hIgG1λ) and plotted against the concentration of antibodies. An IC₅₀ was calculated using GraphPad Prism (Table 10). Antibodies 13E6 and 20A11 only displaced HGF partially (about 50%), which may be related to the epitope these two mAbs recognize on the c-Met.

[10] = target: T1, Decoy c-Met (extracellular domain of …); assay: ELISA: c-Met ectodomain coated at 1 µg/ml on maxisorb plate; mAb in three-fold dilutions from 1 µg/ml, 1 h RT; HRP-conjugated Protein A, TMB, OD 450
[11] = target: T3, c-Met SEMA ectodomain; assay: as above
[12] = target: T4, c-Met SEMA-PSI ectodomain; assay: as above
[13] = target: T9, LI9 (aa572-909) llama-human c-Met chimera (human; Llama glama, UniProt P08581 25-595); assay: ELISA, 36C4 (2 µg/ml) immobilised, chimera added, streptavidin-HRP
T9 construct: range 1-571 (mature numbering, E=1; derived);range 572-909 (mature numbering, E=1); also called Ll9; not shown: Flag and strep tag
Text: (§1) An ELISA was run to investigate the binding of the mAbs to the different chimeras.

[14] = target: T10, LS1 (aa1-98) llama-human c-Met chimera (Llama glama; human, UniProt P08581 123-933); assay: as above
T10 construct: range 1-98 (mature numbering, E=1);range 99-909 (mature numbering, E=1; derived); not shown: Flag and strep tag
Text: as §1

[15] = target: T11, LP7* (aa523-909) llama-human c-Met chimera (human; Llama glama, UniProt P08581 25-546); assay: as above
T11 construct: range 1-522 (mature numbering, E=1; derived);range 523-909 (mature numbering, E=1); not explained further; not shown: Flag and strep tag
Text: as §1

[16] = target: T12, LI8 (aa540-909) llama-human c-Met chimera (human; Llama glama, UniProt P08581 25-563); assay: as above
T12 construct: range 1-539 (mature numbering, E=1; derived);range 540-909 (mature numbering, E=1); also called Ll8; not shown: Flag and strep tag
Text: as §1

[17] = target: T13, LP6 (aa497-909) llama-human c-Met chimera (human; Llama glama, UniProt P08581 25-520); assay: as above
T13 construct: range 1-496 (mature numbering, E=1; derived);range 497-909 (mature numbering, E=1); not shown: Flag and strep tag
Text: as §1

[18] = target: T14, LI10 (aa608-909) llama-human c-Met chimera (human; Llama glama, UniProt P08581 25-631); assay: as above
T14 construct: range 1-607 (mature numbering, E=1; derived);range 608-909 (mature numbering, E=1); also called Ll10; not shown: Flag and strep tag
Text: as §1

[19] = target: T15, LI11 (aa634-909) llama-human c-Met chimera (human; Llama glama, UniProt P08581 25-657); assay: as above
T15 construct: range 1-633 (mature numbering, E=1; derived);range 634-909 (mature numbering, E=1); also called Ll11; not shown: Flag and strep tag
Text: as §1

[20] = target: T7, human c-Met ECD (aa 25-932) with His tag; assay: ELISA: 200 ng of the c-Met ECD protein coated on maxisorb plates; mAb dilutions 1 h RT; HRP-conjugated goat anti-human antibody, TMB, OD 620 nm; remark: listed apart in the source
[21] = target: T16, human/llama-IPT chimeric c-Met ECD (human; Llama glama, UniProt P08581 25-567); assay: as above
T16 construct: range 25-567;range 568-932; Human c-Met in which IPT1-4 is exchanged for the llama IPT1-4; also called human/llama IPT1-4; construct with the human SEMA-PSI; not shown: His tag

[22] = target: T1, Decoy c-Met (extracellular domain of …); assay: ELISA: c-Met ectodomain coated at 1 µg/ml on maxisorb plate; mAb in three-fold dilutions from 1 µg/ml, 1 h RT; HRP-conjugated Protein A, TMB, OD 450; remark: listed apart in the source
[23] = target: T17, HMet (human c-Met of Table 16) (human, UniProt P08581 25-932, limits assumed); assay: ELISA, 36C4 (2 µg/ml) immobilised, c-Met construct added, streptavidin-HRP
T17 construct: Label not explained in the text; not shown: Flag and strep tag
Text: as §1

T4 sequence (P08581 25-562 limits assumed): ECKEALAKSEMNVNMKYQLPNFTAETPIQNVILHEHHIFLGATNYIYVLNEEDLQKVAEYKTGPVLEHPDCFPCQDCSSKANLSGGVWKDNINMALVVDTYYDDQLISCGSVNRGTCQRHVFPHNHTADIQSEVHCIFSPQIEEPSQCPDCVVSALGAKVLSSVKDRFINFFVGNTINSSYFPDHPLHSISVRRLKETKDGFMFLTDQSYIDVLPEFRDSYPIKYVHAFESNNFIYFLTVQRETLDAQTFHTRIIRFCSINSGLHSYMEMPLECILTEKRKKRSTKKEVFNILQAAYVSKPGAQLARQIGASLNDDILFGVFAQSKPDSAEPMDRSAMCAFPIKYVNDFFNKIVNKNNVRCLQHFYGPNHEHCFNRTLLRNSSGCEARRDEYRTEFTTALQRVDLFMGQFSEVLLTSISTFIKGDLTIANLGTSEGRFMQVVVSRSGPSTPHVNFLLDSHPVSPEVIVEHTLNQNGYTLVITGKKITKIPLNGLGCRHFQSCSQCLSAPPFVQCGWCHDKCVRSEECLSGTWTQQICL
T1 sequence (P08581 25-932): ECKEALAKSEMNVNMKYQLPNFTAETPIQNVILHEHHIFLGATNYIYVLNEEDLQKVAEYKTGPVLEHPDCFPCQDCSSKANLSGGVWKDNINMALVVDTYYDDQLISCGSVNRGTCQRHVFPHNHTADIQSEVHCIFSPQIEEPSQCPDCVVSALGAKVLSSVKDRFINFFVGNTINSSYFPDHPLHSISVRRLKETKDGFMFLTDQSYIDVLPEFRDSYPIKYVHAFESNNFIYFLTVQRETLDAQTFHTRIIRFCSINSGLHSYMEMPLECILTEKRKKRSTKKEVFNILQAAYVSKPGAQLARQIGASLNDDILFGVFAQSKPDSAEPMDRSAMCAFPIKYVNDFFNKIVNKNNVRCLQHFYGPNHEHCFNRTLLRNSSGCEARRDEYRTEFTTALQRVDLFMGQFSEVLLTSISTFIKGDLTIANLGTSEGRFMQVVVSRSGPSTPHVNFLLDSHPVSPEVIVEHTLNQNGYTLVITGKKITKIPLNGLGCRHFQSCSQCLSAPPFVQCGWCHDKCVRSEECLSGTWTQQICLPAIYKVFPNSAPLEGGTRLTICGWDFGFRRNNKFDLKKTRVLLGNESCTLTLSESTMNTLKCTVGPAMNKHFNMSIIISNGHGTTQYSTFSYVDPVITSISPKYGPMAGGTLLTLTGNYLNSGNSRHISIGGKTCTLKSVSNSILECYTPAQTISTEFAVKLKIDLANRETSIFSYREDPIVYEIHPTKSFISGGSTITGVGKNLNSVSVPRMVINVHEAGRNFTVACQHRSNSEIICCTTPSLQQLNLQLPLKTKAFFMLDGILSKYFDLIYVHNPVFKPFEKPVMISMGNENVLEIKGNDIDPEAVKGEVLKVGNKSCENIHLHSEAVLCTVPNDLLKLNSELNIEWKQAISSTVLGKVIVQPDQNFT
T3 sequence (P08581 27-515): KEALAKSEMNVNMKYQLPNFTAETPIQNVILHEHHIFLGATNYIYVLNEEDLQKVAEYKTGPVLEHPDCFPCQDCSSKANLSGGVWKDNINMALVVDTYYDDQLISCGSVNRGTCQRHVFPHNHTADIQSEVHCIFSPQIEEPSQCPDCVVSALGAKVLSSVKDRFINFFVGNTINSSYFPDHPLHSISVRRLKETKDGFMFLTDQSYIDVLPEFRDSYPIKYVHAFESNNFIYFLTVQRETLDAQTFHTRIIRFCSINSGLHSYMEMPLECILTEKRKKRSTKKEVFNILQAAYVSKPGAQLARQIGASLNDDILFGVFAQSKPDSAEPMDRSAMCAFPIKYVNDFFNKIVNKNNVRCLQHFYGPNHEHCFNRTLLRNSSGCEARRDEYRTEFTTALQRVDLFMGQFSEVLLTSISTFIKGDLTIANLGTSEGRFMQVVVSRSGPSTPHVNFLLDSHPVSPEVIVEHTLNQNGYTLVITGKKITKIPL
T7 sequence (P08581 25-932 limits assumed): as the sequence (P08581 25-932) above
T8 sequence (P08581 25-932 limits assumed): as the sequence (P08581 25-932) above
T5 sequence (P08581 25-741 limits assumed): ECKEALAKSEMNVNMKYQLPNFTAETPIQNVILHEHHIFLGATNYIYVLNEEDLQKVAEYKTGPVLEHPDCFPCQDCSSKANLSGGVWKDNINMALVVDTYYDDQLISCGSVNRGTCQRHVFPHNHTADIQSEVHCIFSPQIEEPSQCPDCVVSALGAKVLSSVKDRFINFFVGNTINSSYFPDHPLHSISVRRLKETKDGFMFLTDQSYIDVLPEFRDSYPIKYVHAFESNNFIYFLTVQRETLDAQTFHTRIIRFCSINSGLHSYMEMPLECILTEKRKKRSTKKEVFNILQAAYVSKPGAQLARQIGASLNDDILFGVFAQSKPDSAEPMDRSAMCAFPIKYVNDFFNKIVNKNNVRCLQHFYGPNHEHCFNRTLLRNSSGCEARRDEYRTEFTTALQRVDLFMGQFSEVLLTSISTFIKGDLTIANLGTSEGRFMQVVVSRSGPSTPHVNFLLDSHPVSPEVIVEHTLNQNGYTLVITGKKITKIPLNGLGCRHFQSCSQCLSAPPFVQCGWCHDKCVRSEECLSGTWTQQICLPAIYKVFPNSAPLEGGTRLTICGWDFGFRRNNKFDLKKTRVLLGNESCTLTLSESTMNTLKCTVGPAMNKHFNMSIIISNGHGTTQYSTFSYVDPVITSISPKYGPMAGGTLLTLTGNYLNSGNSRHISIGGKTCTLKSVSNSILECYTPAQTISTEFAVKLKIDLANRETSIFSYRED
T2 sequence (P08581 742-932 limits assumed): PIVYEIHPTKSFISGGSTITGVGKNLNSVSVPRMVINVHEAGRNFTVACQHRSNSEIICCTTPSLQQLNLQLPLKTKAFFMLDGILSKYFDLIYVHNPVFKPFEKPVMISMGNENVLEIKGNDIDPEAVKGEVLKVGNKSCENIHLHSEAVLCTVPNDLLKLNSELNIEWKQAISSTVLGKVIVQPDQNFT
T15 sequence (P08581 25-657, change not shown): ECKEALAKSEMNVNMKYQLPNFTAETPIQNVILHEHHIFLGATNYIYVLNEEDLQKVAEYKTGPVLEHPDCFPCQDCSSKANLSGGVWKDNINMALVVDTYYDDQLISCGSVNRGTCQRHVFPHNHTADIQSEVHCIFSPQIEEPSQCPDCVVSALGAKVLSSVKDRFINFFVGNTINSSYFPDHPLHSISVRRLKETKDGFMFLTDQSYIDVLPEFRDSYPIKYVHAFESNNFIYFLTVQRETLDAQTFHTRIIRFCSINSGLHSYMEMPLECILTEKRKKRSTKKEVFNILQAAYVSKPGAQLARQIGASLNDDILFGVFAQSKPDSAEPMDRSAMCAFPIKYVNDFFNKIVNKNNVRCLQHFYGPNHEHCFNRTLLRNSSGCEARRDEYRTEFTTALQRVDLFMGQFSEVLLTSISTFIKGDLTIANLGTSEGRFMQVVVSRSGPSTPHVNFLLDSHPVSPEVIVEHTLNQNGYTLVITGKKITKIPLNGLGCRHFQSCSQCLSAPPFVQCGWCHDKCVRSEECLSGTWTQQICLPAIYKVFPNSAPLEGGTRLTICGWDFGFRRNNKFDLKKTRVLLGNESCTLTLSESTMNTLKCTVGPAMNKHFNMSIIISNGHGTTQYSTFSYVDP
T17 sequence (P08581 25-932 limits assumed): as the sequence (P08581 25-932) above
T14 sequence (P08581 25-631, change not shown): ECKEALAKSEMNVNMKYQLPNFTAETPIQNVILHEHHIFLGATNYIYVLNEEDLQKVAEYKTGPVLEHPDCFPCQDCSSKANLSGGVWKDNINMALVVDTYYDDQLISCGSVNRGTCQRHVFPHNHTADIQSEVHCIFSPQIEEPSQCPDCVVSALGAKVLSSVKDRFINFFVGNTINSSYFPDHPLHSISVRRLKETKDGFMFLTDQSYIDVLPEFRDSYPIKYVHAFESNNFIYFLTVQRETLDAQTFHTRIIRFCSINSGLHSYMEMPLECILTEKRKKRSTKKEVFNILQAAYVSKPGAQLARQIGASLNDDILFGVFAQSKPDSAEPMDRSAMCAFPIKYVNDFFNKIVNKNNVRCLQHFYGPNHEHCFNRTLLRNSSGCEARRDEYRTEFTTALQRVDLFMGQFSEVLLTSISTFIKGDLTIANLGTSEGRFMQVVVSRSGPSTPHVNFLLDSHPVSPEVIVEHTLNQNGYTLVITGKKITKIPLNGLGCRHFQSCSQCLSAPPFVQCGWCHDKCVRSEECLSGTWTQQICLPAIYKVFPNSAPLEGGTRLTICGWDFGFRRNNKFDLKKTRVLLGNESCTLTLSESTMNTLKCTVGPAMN
T10 sequence (P08581 123-933, change not shown): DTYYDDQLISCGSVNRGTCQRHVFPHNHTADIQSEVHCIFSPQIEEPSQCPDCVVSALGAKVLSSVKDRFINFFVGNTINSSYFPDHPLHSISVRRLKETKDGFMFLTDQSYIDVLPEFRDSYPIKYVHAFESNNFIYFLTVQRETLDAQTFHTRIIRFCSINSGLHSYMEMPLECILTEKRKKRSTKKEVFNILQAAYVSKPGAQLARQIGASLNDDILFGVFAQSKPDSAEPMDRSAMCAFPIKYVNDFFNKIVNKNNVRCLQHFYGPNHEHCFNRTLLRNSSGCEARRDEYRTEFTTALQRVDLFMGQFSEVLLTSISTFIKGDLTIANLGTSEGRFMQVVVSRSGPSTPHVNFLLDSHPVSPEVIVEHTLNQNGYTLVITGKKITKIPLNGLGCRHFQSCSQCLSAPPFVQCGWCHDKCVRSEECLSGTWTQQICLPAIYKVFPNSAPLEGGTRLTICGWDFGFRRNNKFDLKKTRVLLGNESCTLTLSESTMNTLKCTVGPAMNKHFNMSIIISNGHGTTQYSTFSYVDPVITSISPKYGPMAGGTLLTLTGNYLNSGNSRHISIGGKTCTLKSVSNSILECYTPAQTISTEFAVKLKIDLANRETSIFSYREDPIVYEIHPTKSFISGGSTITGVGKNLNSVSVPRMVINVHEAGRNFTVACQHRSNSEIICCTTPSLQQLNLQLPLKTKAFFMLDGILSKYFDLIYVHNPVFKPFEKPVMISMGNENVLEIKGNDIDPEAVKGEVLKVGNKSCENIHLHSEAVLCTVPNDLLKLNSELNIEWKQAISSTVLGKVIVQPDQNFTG

Binder	EC50 [1] [nM]	binding result [2]	binding result [3]	binding result [4]	binding result [5]	EC50 [6] [nM]	IC50 (read off the curve) [9] [nM]	further results
B1	4.3	no binding (tested: 1 µg/ml)	no binding (tested: 1 µg/ml)	no binding (tested: 1 µg/ml)	no binding (tested: 1 µg/ml)	3.4	–	–
B2	–	–	–	–	–	–	–	binding result [7]: binds
B3	0.19	no binding (tested: 1 µg/ml)	no binding (tested: 1 µg/ml)	no binding (tested: 1 µg/ml)	no binding (tested: 1 µg/ml)	0.19	–	EC50 (read off the curve) [8]: ~1 nM
B4	0.14	–	–	–	–	0.13	~0.08	EC50 (read off the curve) [10]: ~0.03 µg/mL; binding result [11]: no binding (tested: 1000 ng/ml); binding result [12]: no binding (tested: 1000 ng/ml)
B5	0.13	–	–	–	–	0.14	~0.2	EC50 [13]: 0.047 µg/mL; EC50 [14]: 0.068 µg/mL; EC50 [15]: 0.055 µg/mL; EC50 [16]: 0.047 µg/mL; EC50 [17]: 0.05 µg/mL; EC50 [18]: 0.047 µg/mL; EC50 [19]: 0.045 µg/mL; EC50 (read off the curve) [20]: ~0.6 nM; EC50 (read off the curve) [21]: ~0.6 nM; EC50 (read off the curve) [22]: ~0.02 µg/mL; EC50 [23]: 0.06 µg/mL
